This test deals with T1, RXRα LBD 226-462 (Homo sapiens, UniProt P19793).
T1 chain: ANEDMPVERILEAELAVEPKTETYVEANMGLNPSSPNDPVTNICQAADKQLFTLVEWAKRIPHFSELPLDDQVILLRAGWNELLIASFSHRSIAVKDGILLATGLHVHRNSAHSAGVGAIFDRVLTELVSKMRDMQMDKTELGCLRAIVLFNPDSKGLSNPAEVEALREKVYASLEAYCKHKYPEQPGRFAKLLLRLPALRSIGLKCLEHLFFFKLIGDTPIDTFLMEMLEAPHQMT
Kind of test: sedimentation equilibrium analytical ultracentrifugation.

B1: RXRα LBD 226-462 (protein)
chain: ANEDMPVERILEAELAVEPKTETYVEANMGLNPSSPNDPVTNICQAADKQLFTLVEWAKRIPHFSELPLDDQVILLRAGWNELLIASFSHRSIAVKDGILLATGLHVHRNSAHSAGVGAIFDRVLTELVSKMRDMQMDKTELGCLRAIVLFNPDSKGLSNPAEVEALREKVYASLEAYCKHKYPEQPGRFAKLLLRLPALRSIGLKCLEHLFFFKLIGDTPIDTFLMEMLEAPHQMT
modifications: fluorescein-labeled
On to B1, for which the Kd (in general, the constant that tells how readily two partners part at equilibrium) came out at 832 nM.

For the origin of these results see PMC2805030 (2010).
